What was measured:
[1] = melting temperature; UV melt of duplexes
[2] = melting temperature; melt of duplexes; details: sodium 0.0675 M; strand 1 µM

Substance	Tm ([1]; sodium 0.07 M, strand 2 µM)	Tm ([1]; sodium 0.12 M, strand 2 µM)	Tm ([1]; sodium 0.22 M, strand 2 µM)	Tm ([1]; sodium 0.62 M, strand 2 µM)	Tm ([1]; sodium 1.02 M, strand 2 µM)	Tm [2]	also measured
AAAAAAAAAGCTTTTTTTTT+AAAAAAAAAGCTTTTTTTTT ((((((((((((((((((((+))))))))))))))))))))	–	–	–	–	–	–	Tm ([1]; sodium 0.12 M, strand 5 µM): 51 °C
TGATTCTACCTATGTGATTT+AAATCACATAGGTAGAATCA ((((((((((((((((((((+))))))))))))))))))))	49.1 °C	53.5 °C	57.4 °C	62.3 °C	64.4 °C	–	–
CCACTATACCATCTATGTAC+GTACATAGATGGTATAGTGG ((((((((((((((((((((+))))))))))))))))))))	51.1 °C	54.6 °C	58.4 °C	62.2 °C	64.4 °C	–	–
CAACTTGATATTAATA+TATTAATATCAAGTTG ((((((((((((((((+))))))))))))))))	–	–	–	–	–	–	Tm ([1]; sodium 1 M, strand 18 µM): 52 °C
CATATTGGCCAATATG+CATATTGGCCAATATG ((((((((((((((((+))))))))))))))))	–	–	–	–	–	–	Tm ([1]; sodium 1 M, strand 0.0001 M): 65.3 °C
ACAGCGAATGGACCTACGTGGCCTT+AAGGCCACGTAGGTCCATTCGCTGT (((((((((((((((((((((((((+)))))))))))))))))))))))))	68.1 °C	72.1 °C	76 °C	79.4 °C	81 °C	–	–
AGTCTGGTCTGGATCTGAGAACTTCAGGCT+AGCCTGAAGTTCTCAGATCCAGACCAGACT ((((((((((((((((((((((((((((((+))))))))))))))))))))))))))))))	66.3 °C	70.4 °C	74.5 °C	78.8 °C	80.6 °C	–	–
CAGCAGCAGCAGCAGCAGCAGCAGCAGCAG+CTGCTGCTGCTGCTGCTGCTGCTGCTGCTG ((((((((((((((((((((((((((((((+))))))))))))))))))))))))))))))	–	–	–	–	–	–	Tm ([1]; sodium 0.15 M, strand 0.0001 M): 83 °C
GCCAACTCCGTCGCCGTTCGTGCGC+GCGCACGAACGGCGACGGAGTTGGC (((((((((((((((((((((((((+)))))))))))))))))))))))))	73.5 °C	76.5 °C	80.6 °C	83.2 °C	84.6 °C	–	–
ACGGGTCCCCGCACCGCACCGCCAG+CTGGCGGTGCGGTGCGGGGACCCGT (((((((((((((((((((((((((+)))))))))))))))))))))))))	76.8 °C	79.9 °C	84 °C	87.1 °C	88.3 °C	–	–
TTCAAGTTAAACATTCTATC+GATAGAATGTTTAACTTGAA ((((((((((((((((((((+))))))))))))))))))))	45.7 °C	49.5 °C	53.9 °C	59.4 °C	61.5 °C	–	–
AACCTGCAACATGGAGTTTTTGTCTCATGC+GCATGAGACAAAAACTCCATGTTGCAGGTT ((((((((((((((((((((((((((((((+))))))))))))))))))))))))))))))	64.5 °C	68.3 °C	72.5 °C	77.7 °C	78.7 °C	–	–
GATATAGCAAAATTCTAAGTTAATA+TATTAACTTAGAATTTTGCTATATC (((((((((((((((((((((((((+)))))))))))))))))))))))))	49.1 °C	53.5 °C	57.7 °C	63.3 °C	66.1 °C	–	–
GACGACGACGACGACGACGACGACGACGAC+GTCGTCGTCGTCGTCGTCGTCGTCGTCGTC ((((((((((((((((((((((((((((((+))))))))))))))))))))))))))))))	–	–	–	–	–	–	Tm ([1]; sodium 0.15 M, strand 0.0001 M): 83 °C
AACGTGAATTCTGGCA+TGCCAGAATTCACGTT ((((((((((((((((+))))))))))))))))	–	–	–	–	–	–	Tm ([1]; sodium 0.12 M, strand 7.4 µM): 58.3 °C
AAGGCGAGTCAGGCTCAGTG+CACTGAGCCTGACTCGCCTT ((((((((((((((((((((+))))))))))))))))))))	64.5 °C	67.7 °C	71.4 °C	75.1 °C	76.3 °C	–	–
AATATATGATCATCGAT+ATCGATGATCATATATT (((((((((((((((((+)))))))))))))))))	–	–	–	–	–	–	Tm ([1]; sodium 0.12 M, strand 3 µM): 50 °C
CGACGTGCGATATGTGCTG+CAGCACATCACGCACGTCG (((((((((..((((((((+))))))))..)))))))))	–	–	–	–	–	53.7 °C	–
CGACGTGCGGGATGTGCTG+CAGCACATTCCGCACGTCG ((((((((((.((((((((+)))))))).))))))))))	–	–	–	–	–	62.8 °C	–
CGACGTGCGGGATGTGCTG+CAGCACATAAGGCACGTCG ((((((((...((((((((+))))))))...))))))))	–	–	–	–	–	51.1 °C	–
CGACGTGCACCATGTGCTG+CAGCACATGGAGCACGTCG ((((((((.((((((((((+)))))))))).))))))))	–	–	–	–	–	58.8 °C	–
CGACGTGCCGAATGTGCTG+CAGCACATCCAGCACGTCG ((((((((.(.((((((((+)))))))).).))))))))	–	–	–	–	–	49.8 °C	–
CGACGTGCACAATGTGCTG+CAGCACATGACGCACGTCG ((((((((...((((((((+))))))))...))))))))	–	–	–	–	–	48.2 °C	–
CGACGTGCCATATGTGCTG+CAGCACATAGCGCACGTCG ((((((((..(((((((((+)))))))))..))))))))	–	–	–	–	–	50 °C	–
CGACGTGCCTTATGTGCTG+CAGCACATCACGCACGTCG ((((((((.(.((((((((+)))))))).).))))))))	–	–	–	–	–	46.7 °C	–
CGACGTGCCTTATGTGCTG+CAGCACATATGGCACGTCG (((((((((.(((((((((+))))))))).)))))))))	–	–	–	–	–	57.9 °C	–
CGACGTGCTTAATGTGCTG+CAGCACATGTAGCACGTCG (((((((((..((((((((+))))))))..)))))))))	–	–	–	–	–	53.4 °C	–

From the array DNA melting data of Ke et al.
